Reference: article PMC12756933, “Evidence for biomolecular condensates formed by the Escherichia coli MatP protein in spatiotemporal regulation of the bacterial cell division cycle” (International journal of biological macromolecules, 2025)
Values joined by “and” are separate entries in the source; they are usually repeats but may differ in a detail not shown here. Equal values may be shown once. Each block holds one binder with its values, some of them ahead of it.

B1: FtsZ (natural protein, E. coli, UniProt P0A9A6 1-383, looked up)
chain: MFEPMELTNDAVIKVIGVGGGGGNAVEHMVRERIEGVEFFAVNTDAQALRKTAVGQTIQIGSGITKGLGAGANPEVGRNAADEDRDALRAALEGADMVFIAAGMGGGTGTGAAPVVAEVAKDLGILTVAVVTKPFNFEGKKRMAFAEQGITELSKHVDSLITIPNDKLLKVLGRGISLLDAFGAANDVLKGAVQGIAELITRPGLMNVDFADVRTVMSEMGYAMMGSGVASGEDRAEEAAEMAISSPLLEDIDLSGARGVLVNITAGFDLRLDEFETVGNTIRAFASDNATVVIGTSLDPDMNDELRVTVVATGIGMDKRPEITLVTNKQVQQPVMDRYQQHGMAPLTQEQKPVAKVVNDNAPQTAKEPDYLDIPAFLRKQAD
modifications: Alexa Fluor 488 or Alexa Fluor 647 at amino groups, on the tracer fraction only (<1 mol of dye per mole of protein)
notes: FtsZ, E. coli; Oligomers of variable size without GTP, polymers with GTP; also called FtsZ-Alexa 488; FtsZ-Alexa 647

Key:
[1] = target: the molecule itself; assay: AUC; sedimentation velocity, dilute solution buffer with 100 mM KCl, GTP and GTP regeneration system, Rayleigh interference; FtsZ polymers with or without MatP
FtsZ [2] = target: T1, FtsZ (E. coli, UniProt P0A9A6 1-383); assay: AUC; multi-signal sedimentation velocity (MSSV), 20 uM FtsZ and 7 uM MatP, absorbance at 250 and 280 nm, 48,000 rpm; dilute solution buffer (50 mM Tris-HCl pH 7.5, 5 mM MgCl2) with 100 mM KCl, no GTP; conditions: both partners purified
T1 construct: FtsZ, Escherichia coli cell division protein; oligomers of variable size without GTP, polymers with GTP; also called FtsZ-GTP; GTP-triggered FtsZ polymers
T1 sequence (looked up): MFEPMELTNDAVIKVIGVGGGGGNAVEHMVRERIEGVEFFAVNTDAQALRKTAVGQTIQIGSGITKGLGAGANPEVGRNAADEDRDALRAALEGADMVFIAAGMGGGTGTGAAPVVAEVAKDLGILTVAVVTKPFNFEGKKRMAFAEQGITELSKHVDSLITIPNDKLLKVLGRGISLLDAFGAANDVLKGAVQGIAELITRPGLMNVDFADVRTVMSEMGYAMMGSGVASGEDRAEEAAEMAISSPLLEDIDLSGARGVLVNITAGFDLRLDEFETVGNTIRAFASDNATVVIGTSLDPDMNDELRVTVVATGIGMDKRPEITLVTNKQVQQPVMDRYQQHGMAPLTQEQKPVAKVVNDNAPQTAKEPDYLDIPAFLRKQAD

FtsZ [3] = target: B1; assay: fluorescence polarisation; anisotropy titration of MatP (50 nM MatP-Alexa 488, 96 nM total MatP) with unlabelled FtsZ; 50 mM Tris-HCl pH 7.5, 5 mM MgCl2, 100 mM KCl; simple 1:1 model, apparent Kd = FtsZ concentration at half of the maximum signal; conditions: both partners purified
[4] = target: the molecule itself; assay: fluorescence correlation spectroscopy; dilute solution buffer: 50 mM Tris-HCl pH 7.5, 5 mM MgCl2, 100 mM KCl, 0.05 g/L BSA; 10 uM MatP with 10 nM MatP-Alexa 488 as tracer, alone or with 20 uM unlabelled FtsZ, no GTP; at 300 mM KCl the profiles of MatP and FtsZ/MatP overlapped

Binder: B1
binding result [1]: binds

binding result (FtsZ [2]): binds
B2: MatP (natural protein, E. coli, UniProt P0A8N0 1-150, looked up)
chain: MKYQQLENLESGWKWKYLVKKHREGELITRYIEASAAQEAVDVLLSLENEPVLVNGWIDKHMNPELVNRMKQTIRARRKRHFNAEHQHTRKKSIDLEFIVWQRLAGLAQRRGKTLSETIVQLIEDAENKEKYANKMSSLKQDLQALLGKE
notes: MatP, Escherichia coli, untagged; sediments as a dimer (2.5 S); also called Ter macrodomain organizer MatP; MatP-Alexa 488 (labelled tracer)

Kd (FtsZ [3]): 8 µM and 18 µM
B3: MatP (natural protein, E. coli, UniProt P0A8N0 1-150, looked up)
chain: MKYQQLENLESGWKWKYLVKKHREGELITRYIEASAAQEAVDVLLSLENEPVLVNGWIDKHMNPELVNRMKQTIRARRKRHFNAEHQHTRKKSIDLEFIVWQRLAGLAQRRGKTLSETIVQLIEDAENKEKYANKMSSLKQDLQALLGKE
modifications: Alexa Fluor 488 or Alexa Fluor 647 at amino groups, on the tracer fraction only (<1 mol of dye per mole of protein)
notes: MatP, E. coli, untagged; Labelled MatP was used as a tracer mixed with unlabelled MatP; Sediments as a dimer (2.5 S); also called Ter macrodomain organizer MatP; MatP-Alexa 488
stoichiometry N [4]: 2
